In patent US20230190922A1:

Biological target: human 4-1BB receptor (h4-1-BB) expressed on a genetically engineered Jurkat T cell line (4-1BB Bioassay, Promega) (human) (UniProt Q07011)
Assay: cell-based or functional assay
Details: scale: relative luciferase expression

human 4-1BB receptor (h4-1-BB) expressed on a genetically engineered Jurkat T cell line (4-1BB Bioassay, Promega) (human), sequence (Q07011 24-255, change not shown): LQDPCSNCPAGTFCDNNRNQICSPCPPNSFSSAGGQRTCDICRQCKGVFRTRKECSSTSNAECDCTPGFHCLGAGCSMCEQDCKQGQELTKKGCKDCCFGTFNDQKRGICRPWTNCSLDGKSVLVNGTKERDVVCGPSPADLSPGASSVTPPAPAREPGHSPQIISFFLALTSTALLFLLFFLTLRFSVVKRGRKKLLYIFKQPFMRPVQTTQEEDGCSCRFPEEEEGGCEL

His-tagged h4-1BBL cross-linked with an Fc (from UniProt P41273 71-254) (ligand)
luciferase expression by Jurkat-h4-1BB reporter cells (4-1BB Bioassay, Promega), reference value: 1
